Data as given in patent publication US9926369B2, “Methods for treating hepatocellular cancer by administering an anti-Ang-2 antibody” (Regeneron Pharmaceuticals, Inc., priority 2009, dated 2018).
pKd: −log10 of the molar value.

Experiments:
hAng-2FD-mFc Y-475-H = biological target: T1, hAng-2FD-mFc Y-475-H (Homo sapiens, UniProt O15123, Y475H); test: Ang-2FD-mFc point mutant binding experiment (SPR), Y-475-H; conditions: Y-475-H mutant captured; antibody/peptibody at 100 nM; 25° C.
T1 construct: made in house
Source text: To further characterize binding between hAng2 and anti-hAng2 mAbs of the invention, seven variant hAng2-FD-mFc proteins were generated, each containing a single point mutation. Amino acids selected for mutation were based on the difference in sequence between hAng-2 and hAng-1 in the region that interacts with hTie-2 (FIG. 1). In particular, amino acids within the fibrinogen-like domain (FD) of Ang-2 which are believed to interact with Tie-2 based on crystal structure analysis, but which differ from the corresponding amino acid in Ang-1, were individually mutated to the corresponding hAng-1 residue. The results of this example indicate the amino acid residues of hAng-2 with which the Ang-2 preferential binding antibodies interact.
In this experiment, each of the seven hAng-2FD-mFc mutant proteins were captured (˜147-283 RU) on an anti-mouse-Fc surface created through direct chemical coupling to a BIACORE™ chip. Then each Ang-2 antibody (or peptibody, as the case may be) at 100 nM was injected over the captured mFc-tagged hAng-2FD protein surface at a flowrate of 50 μl/min for 180 sec, and the dissociation of variant hAng2-FD-mFc and antibody was monitored in real time for 20 min at 25° C.

[1] = system: advanced solid tumor malignancies; test: Ascending, multiple-dose clinical trial of intravenously administered mAb1 in patients with advanced cancer; format: in vivo
Description: This study was an open-label, ascending, multiple-dose study of mAb1 administered as an intravenous (IV) infusion (30 minutes) at doses of 1, 3, 6, 12 or 20 mg/kg once every 2 weeks. The study was conducted in patients with advanced solid tumor malignancies who have failed conventional therapy. The purpose of the study was to explore the safety, recommended dose (RD), pharmacokinetics (PK), pharmacodynamics (PD) and anti-tumor activity of mAb1 (also known as “H1H685P”).
Patients were screened to determine eligibility within 28 days prior to the first dose administration. Three patients were assigned to each of the five sequential cohorts (1, 3, 6, 12 or 20 mg/kg). Patients received mAb1 as a 30 minute IV infusion on Days 1 and 15 of each 4-week cycle (28 days). The dose of mAb1 was escalated until the recommended dose was determined, based on safety, tolerability, PK, PD testing and/or maximum tolerated dose (MTD). The MTD is defined as the highest dose at which less than 33% of patients experience dose-limiting toxicity (DLT) during the first cycle of therapy.
Six dose levels were planned for studying dose escalation. Starting at dose 1, a minimum of 3 patients was entered at each dose level. […] If no further cycle 1 DLT was observed, dose escalation proceeded to the next dose level. If two or more patients experienced a cycle 1 DLT, dose escalation was stopped and the previous lower dose level was expanded to 6 patients. Once the RD was determined, up to 10 additional patients were enrolled to evaluate safety and other biological/clinical effects. A separate cohort was planned for patients with hepatocellular carcinoma (HCC) where up to 10 patients were enrolled based on the eligibility criteria (listed below).
A DLT is defined by any of the following treatment-related events occurring during the first cycle (28 days) of study treatment: (1) Hematologic toxicity as evidenced by (a) Grade 3 or 4 neutropenia complicated by fever 38.5° C. or infection; (b) Grade 4 neutropenia of at least 7 days duration; (c) Grade 3 thrombocytopenia complicated by hemorrhage; or (d) Grade 4 thrombocytopenia; and/or (2) Non-hematologic toxicity as evidenced by (a) any Grade 4 non-hematologic toxicity; or (b) Grade 3 non-hematologic toxicities except fatigue, anorexia, nausea, vomiting or diarrhea that can be controlled by medication. Grade 3 laboratory changes that reflected tumor burden were not considered as DLT.
Safety was assessed throughout the study by monitoring Adverse Events and Serious Adverse Events.
For tumor assessment, a CT or MRI was performed at the screening visit (within 28 days prior to infusion) and during every even-numbered cycle (eg cycles 2, 4, 6, 8) between days 15 and 28 and when disease progression was suspected. Tumor assessment was performed according to Response Evaluation Criteria in Solid Tumors version 1.1 (RECIST version 1.1). RECIST criteria are developed to facilitate objective assessment of change in tumor burden such as tumor shrinkage and time to development of disease progression. RECIST guidelines are posted on the worldwide web at http://ctep(dot)cancer(dot)gov(slash)protocoldevelopment(slash)docs(slash)recist_guideline(dot)pdf. Tumor marker assessments were also collected, when available.
Blood samples were collected for RNA, serum cytokine testing, molecular profiling, anti-drug antibody (ADA) and serum mAb1 levels at screening and post-infusion on days 1, 2, 3, 8, 15 and 22 of cycle 1, and on day 1 of subsequent cycles. Tumor biopsies were obtained for immunohistochemistry studies for Ang-2. Results were scored as positive for Ang-2 in association with expression of endothelial cell CD31.

T1 sequence (O15123 with tags, fused parts or gaps Y475H): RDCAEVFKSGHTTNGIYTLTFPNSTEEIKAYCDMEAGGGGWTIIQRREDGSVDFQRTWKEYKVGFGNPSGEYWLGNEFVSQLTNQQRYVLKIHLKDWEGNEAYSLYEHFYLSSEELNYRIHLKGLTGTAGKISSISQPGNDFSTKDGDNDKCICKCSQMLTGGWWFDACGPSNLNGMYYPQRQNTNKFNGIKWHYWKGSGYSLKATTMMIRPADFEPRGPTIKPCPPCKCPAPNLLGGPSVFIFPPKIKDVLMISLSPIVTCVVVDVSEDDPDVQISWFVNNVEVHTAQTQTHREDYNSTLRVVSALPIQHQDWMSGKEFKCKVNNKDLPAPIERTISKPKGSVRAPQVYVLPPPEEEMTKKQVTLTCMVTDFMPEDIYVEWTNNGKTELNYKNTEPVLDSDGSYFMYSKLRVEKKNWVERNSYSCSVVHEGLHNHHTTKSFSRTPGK

Substance: H1H685P: human anti-Ang-2 antibody, HCVR/LCVR SEQ ID NOs 18/20; also referred to as mAb1 [Antibody H1H685P]
- pKd (hAng-2FD-mFc Y-475-H): 9.71
- RU (hAng-2FD-mFc Y-475-H): 181.53 RU
- Positive ADA detected ([1]; 3 mg/kg): 1 patient
- Confirmed sustained patient response (PR), duration ([1]; 1 patient with adrenocortical cancer treated at 1 mg/kg): 16 wks
- Stable disease (SD), patients evaluable for efficacy ([1]; 17 of 32 patients): 53%
- Total circulating serum Ang2 levels following treatment ([1]; all cohorts): saturated
- Maximum tolerated dose (MTD) ([1]; human, in vivo, iv): not reached
- Stable disease (SD), duration ([1]; one patient with thyroid cancer): 46 weeks
- Treatment-related adverse events (G½): abdominal distension ([1]; patients): 11%
- Treatment-related adverse events (G½): decreased appetite ([1]; patients): 11%
- Treatment-related adverse events (G½): diarrhea ([1]; patients): 14%
- Treatment-related adverse events (G½): fatigue ([1]; patients): 19%
- Treatment-related adverse events (G½): peripheral edema ([1]; patients): 17%
- ≥Grade 3 TRAEs ([1]; patients): no ≥Grade 3 TRAEs
- Stable disease (SD), duration range ([1]; patients evaluable for efficacy): 3.3-46.8 weeks
- Tolerability ([1]; patients with advanced cancer): generally well tolerated
- Dose-limiting toxicities (DLTs) ([1]; patients, 1, 3, 6, 12 and 20 mg/kg IV every 2 weeks): No DLTs
- Pharmacokinetics (PK) across all dose levels ([1]; patients, IV): linear and dose-proportional
